Data from article PMC11480449, “Adaptive laboratory evolution recruits the promiscuity of succinate semialdehyde dehydrogenase to repair different metabolic deficiencies” (Nature Communications, 2024).
Changes are numbered by the printed parent chain. Names and notes keep the numbering of the source. Blank lines part the entries; values can stand above or below the molecule they belong to.

Columns and labels:
[1] = target: T1, Sad (NAD(P)+-dependent succinate semialdehyde dehydrogenase, SSADH) (Escherichia coli, UniProt P76149); assay: X-ray crystallography; assay type: binding
T1 construct: dimeric on size exclusion

[2] = target: T2, Sad (NAD(P)+-dependent succinate semialdehyde dehydrogenase, SSADH) (Escherichia coli, UniProt P76149, Q262R); assay: X-ray crystallography; assay type: binding; details: 5 mM NAD+, 1 mM TCEP
T2 construct: dimeric on size exclusion
T2 sequence (P76149 whole entry Q262R): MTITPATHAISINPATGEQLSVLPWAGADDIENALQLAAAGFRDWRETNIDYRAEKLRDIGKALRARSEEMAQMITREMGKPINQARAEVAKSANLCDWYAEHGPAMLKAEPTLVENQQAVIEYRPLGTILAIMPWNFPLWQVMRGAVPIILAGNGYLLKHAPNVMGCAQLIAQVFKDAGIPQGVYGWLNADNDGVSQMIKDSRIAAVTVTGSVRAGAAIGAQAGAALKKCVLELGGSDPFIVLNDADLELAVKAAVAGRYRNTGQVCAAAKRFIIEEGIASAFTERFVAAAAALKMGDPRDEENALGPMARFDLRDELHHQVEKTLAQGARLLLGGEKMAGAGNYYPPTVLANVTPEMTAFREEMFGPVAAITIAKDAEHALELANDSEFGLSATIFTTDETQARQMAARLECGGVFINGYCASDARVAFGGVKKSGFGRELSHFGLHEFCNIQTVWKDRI

[3] = target: T3, ThrA (bifunctional aspartokinase (AK)/homoserine dehydrogenase (HDH) 1) (Escherichia coli, UniProt P00561); assay: aspartate kinase, PK/LDH-coupled, NADH at […] nm; assay type: biochemical; details: 4 mM ATP, 5 mM L-aspartate, 5 mM MgCl2, pH 8.0, 37 °C
T3 sequence (P00561 1-820): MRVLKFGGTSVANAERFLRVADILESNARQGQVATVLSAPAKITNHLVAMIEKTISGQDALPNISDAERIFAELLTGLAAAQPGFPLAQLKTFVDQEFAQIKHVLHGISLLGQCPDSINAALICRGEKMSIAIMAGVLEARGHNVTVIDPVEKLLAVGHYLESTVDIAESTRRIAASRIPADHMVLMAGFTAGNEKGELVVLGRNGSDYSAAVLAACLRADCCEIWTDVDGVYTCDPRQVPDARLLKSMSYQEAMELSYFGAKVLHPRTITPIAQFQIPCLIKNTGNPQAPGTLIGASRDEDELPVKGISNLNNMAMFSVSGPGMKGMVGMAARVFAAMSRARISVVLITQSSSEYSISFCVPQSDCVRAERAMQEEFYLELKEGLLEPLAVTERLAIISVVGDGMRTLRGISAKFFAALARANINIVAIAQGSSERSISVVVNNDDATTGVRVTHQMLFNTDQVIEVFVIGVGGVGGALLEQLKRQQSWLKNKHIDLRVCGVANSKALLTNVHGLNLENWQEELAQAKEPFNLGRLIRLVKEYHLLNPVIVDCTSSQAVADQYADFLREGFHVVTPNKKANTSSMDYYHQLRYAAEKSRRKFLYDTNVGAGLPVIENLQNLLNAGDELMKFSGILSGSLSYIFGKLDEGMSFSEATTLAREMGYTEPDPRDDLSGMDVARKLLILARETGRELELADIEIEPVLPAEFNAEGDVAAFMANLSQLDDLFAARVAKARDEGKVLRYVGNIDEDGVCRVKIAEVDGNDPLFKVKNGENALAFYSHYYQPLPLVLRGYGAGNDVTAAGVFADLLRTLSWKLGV

[4] = target: T2, Sad (NAD(P)+-dependent succinate semialdehyde dehydrogenase, SSADH); assay: NADH formation at […] nm, substrate-inhibition fit; assay type: biochemical; details: 1 mM NAD+, 75 mM HEPES pH 8.0, 37 °C
[5] = target: T1, Sad (NAD(P)+-dependent succinate semialdehyde dehydrogenase, SSADH); assay: NADH formation at […] nm, substrate-inhibition fit; assay type: biochemical; details: 1 mM NAD+, 75 mM HEPES pH 8.0, 37 °C
[6] = target: T3, ThrA (bifunctional aspartokinase (AK)/homoserine dehydrogenase (HDH) 1); assay: homoserine dehydrogenase, NADPH consumption at […] nm; assay type: biochemical; details: 0.2 mM NADPH, 1 mM substrate, 100 mM KCl, pH 8.0, 37 °C
purified protein [7] = substrate: O=C[C@H](O)COP(=O)(O)O; assay: purified protein; assay type: biochemical, Escherichia coli; details: 1 mM NAD+, 75 mM HEPES pH 8.0, 37 °C
purified protein [8] = substrate: O=C[C@H](O)[C@H](O)COP(=O)(O)O; assay: purified protein; assay type: biochemical, Escherichia coli; details: 1 mM NAD+, 75 mM HEPES pH 8.0, 37 °C
purified protein [9] = substrate: O=CCCC(=O)O; assay: purified protein; assay type: biochemical, Escherichia coli; details: 75 mM HEPES pH 8.0, 37 °C
[10] = target: the molecule itself; assay: SEC; HiLoad 16/600 Superdex 200 pg, 20 mM HEPES-KOH, 50 mM KCl, pH 7.5; preparative step after affinity purification, before crystallisation

Molecule: NC(=O)c1ccc[n+]([C@@H]2O[C@H](COP(=O)(O)OP(=O)(O)OC[C@H]3O[C@@H](n4cnc5c(N)ncnc54)[C@H](O)[C@@H]3O)[C@@H](O)[C@H]2O)c1 [NAD^+]
- X-ray crystallography ([1]; 5 mM NAD+): crystal structures of both Sad WT and Q262R variants with bound NAD^+
- X-ray crystallography [2]: crystal structures of both Sad WT and Q262R variants with bound NAD^+

Molecule: N[C@@H](CC(=O)O)C(=O)O [L-aspartate]
- aspartate kinase, PK/LDH-coupled, NADH at 340 nm [3]: Aspartate kinase activities of ThrA variants were determined

- X-ray crystallography ([1]; covalent, bound to C268, NAD+ present, crystal soaked with 5 mM SSA): the latter is covalently bound to C268
- App. Ki [4]: 500 ± 100 µM
- App. Ki [5]: 300 ± 100 µM
Molecule: O=CCCC(=O)O [succinate semialdehyde]

- App. Ki [4]: 1400 ± 300 µM
Molecule: O=C[C@H](O)COP(=O)(O)O [glyceraldehyde 3-phosphate]

- App. Ki [4]: 7400 ± 3300 µM
Molecule: O=C[C@H](O)[C@H](O)COP(=O)(O)O [erythrose 4-phosphate]

Molecule: N[C@@H](CC=O)C(=O)O [L-aspartic 4-semialdehyde]
- homoserine dehydrogenase, NADPH consumption at 340 nm [6]: Homoserine dehydrogenase activities of ThrA variants were determined

B1: Sad (NAD(P)+-dependent succinate semialdehyde dehydrogenase, SSADH) (Escherichia coli K-12) (protein)
chain: MTITPATHAISINPATGEQLSVLPWAGADDIENALQLAAAGFRDWRETNIDYRAEKLRDIGKALRARSEEMAQMITREMGKPINQARAEVAKSANLCDWYAEHGPAMLKAEPTLVENQQAVIEYRPLGTILAIMPWNFPLWQVMRGAVPIILAGNGYLLKHAPNVMGCAQLIAQVFKDAGIPQGVYGWLNADNDGVSQMIKDSRIAAVTVTGSVRAGAAIGAQAGAALKKCVLELGGSDPFIVLNDADLELAVKAAVAGRYQNTGQVCAAAKRFIIEEGIASAFTERFVAAAAALKMGDPRDEENALGPMARFDLRDELHHQVEKTLAQGARLLLGGEKMAGAGNYYPPTVLANVTPEMTAFREEMFGPVAAITIAKDAEHALELANDSEFGLSATIFTTDETQARQMAARLECGGVFINGYCASDARVAFGGVKKSGFGRELSHFGLHEFCNIQTVWKDRI
notes: dimeric on size exclusion
- Km (purified protein [7]): 1,106 ± 92 μM
- kcat (purified protein [7]): 3.1 ± 0.2 s⁻¹
- kcat/Km (purified protein [7]): 2800 M⁻¹ s⁻¹
- Km (purified protein [8]): 2,102 ± 328 μM
- kcat (purified protein [8]): 1.1 ± 0.1 s⁻¹
- kcat/Km (purified protein [8]): 530 M⁻¹ s⁻¹
- Km (purified protein [9]; 1 mM NAD+): 11 ± 1 µM
- kcat (purified protein [9]; 1 mM NAD+): 85 ± 3 s⁻¹
- kcat/Km (purified protein [9]; 1 mM NAD+): 7.4e+06 M⁻¹ s⁻¹

B2: NAD(P)+-dependent succinate semialdehyde dehydrogenase of Escherichia coli (Sad), wild type (enzyme)
chain: B1 chain
notes: Succinate semialdehyde dehydrogenase Sad, E. coli; also called Sad WT; SSADH; source: E. coli BL21(DE3), purified (HisTrap, Superdex 200)
- binding result [10]: binds

B3: Sad (NAD(P)+-dependent succinate semialdehyde dehydrogenase, SSADH) (Escherichia coli K-12; Q262R) (protein)
chain: B1 chain with Q262R
notes: dimeric on size exclusion
- Km (purified protein [7]): 67 ± 9 µM
- kcat (purified protein [7]): 19 ± 1 s⁻¹
- kcat/Km (purified protein [7]): 280000 M⁻¹ s⁻¹
- Km (purified protein [8]): 28 ± 4 µM
- kcat (purified protein [8]): 3 ± 0.1 s⁻¹
- kcat/Km (purified protein [8]): 110000 M⁻¹ s⁻¹
- Km (purified protein [9]; 1 mM NAD+): 5 ± 1 µM
- kcat (purified protein [9]; 1 mM NAD+): 87 ± 4 s⁻¹
- kcat/Km (purified protein [9]; 1 mM NAD+): 1.9e+07 M⁻¹ s⁻¹

B4: Succinate semialdehyde dehydrogenase Sad, Q262R variant (enzyme, Escherichia coli)
chain: B1 chain with Q262R
notes: Succinate semialdehyde dehydrogenase Sad, E. coli, with Q262R (arose in adaptive laboratory evolution); also called Q262R mutant; source: E. coli BL21(DE3), purified (HisTrap, Superdex 200)
- binding result [10]: binds

B5: GabD (NADP+-dependent SSADH) (Escherichia coli K-12) (protein)
chain: MKLNDSNLFRQQALINGEWLDANNGEAIDVTNPANGDKLGSVPKMGADETRAAIDAANRALPAWRALTAKERATILRNWFNLMMEHQDDLARLMTLEQGKPLAEAKGEISYAASFIEWFAEEGKRIYGDTIPGHQADKRLIVIKQPIGVTAAITPWNFPAAMITRKAGPALAAGCTMVLKPASQTPFSALALAELAIRAGVPAGVFNVVTGSAGAVGNELTSNPLVRKLSFTGSTEIGRQLMEQCAKDIKKVSLELGGNAPFIVFDDADLDKAVEGALASKFRNAGQTCVCANRLYVQDGVYDRFAEKLQQAVSKLHIGDGLDNGVTIGPLIDEKAVAKVEEHIADALEKGARVVCGGKAHERGGNFFQPTILVDVPANAKVSKEETFGPLAPLFRFKDEADVIAQANDTEFGLAAYFYARDLSRVFRVGEALEYGIVGINTGIISNEVAPFGGIKASGLGREGSKYGIEDYLEIKYMCIGL
- Km (purified protein [9]; 1 mM NADP+): 13 ± 1 µM
- kcat (purified protein [9]; 1 mM NADP+): 132 ± 2 s⁻¹
- kcat/Km (purified protein [9]; 1 mM NADP+): 1e+07 M⁻¹ s⁻¹
